In assay [1] the target is T1, proGDF8 (mouse) (mouse, UniProt O08689 25-376). Put plainly: cell-based or functional assay.
The target in assay [2] is T2, proGDF8 (human) (human, UniProt O14793 24-375). Put plainly: cell-based or functional assay.
The target of assay [3] is T1, proGDF8 (mouse). Put plainly: cell-based or functional assay. The source holds these as a separate data set.
Assay [4] concerns the target T3, proGDF11 (human) (human, UniProt O95390 25-407).
T3 construct: domain: proGDF11 (prodomain plus growth factor domain)
The experiment in a line: ForteBio BLI; biotinylated proGDF11 on streptavidin tip, 30 µg/mL antibody, response after 5 minutes of association relative to proGDF8.
Method: In this assay, biotinylated proGDF11 or biotinylated proMyostatin was immobilized on a ForteBio BLI streptavidin-coated sensor tip, which was applied to wells containing 30 μg/mL of antibody. Interactions of the analyte with the protein immobilized on the chip are measured by the magnitude of the response of the biosensor chip. The biosensor response after 5 minutes of association (a saturating signal for proGDF8) was compared between the two antigens, and expressed as the percent response for GDF8 binding.

In assay [5] the target is T3, proGDF11 (human). Put plainly: ForteBio Octet BLI; biotinylated antigen on streptavidin tip, Ab1 in solution. (Biolayer interferometry detects binding as a change in optical thickness at a sensor tip.)
Assay [6] concerns the target T4, Pro Activin A (human, UniProt P08476 21-426).
T4 construct: domain: pro form (prodomain plus growth factor domain)
T4 sequence (looked up): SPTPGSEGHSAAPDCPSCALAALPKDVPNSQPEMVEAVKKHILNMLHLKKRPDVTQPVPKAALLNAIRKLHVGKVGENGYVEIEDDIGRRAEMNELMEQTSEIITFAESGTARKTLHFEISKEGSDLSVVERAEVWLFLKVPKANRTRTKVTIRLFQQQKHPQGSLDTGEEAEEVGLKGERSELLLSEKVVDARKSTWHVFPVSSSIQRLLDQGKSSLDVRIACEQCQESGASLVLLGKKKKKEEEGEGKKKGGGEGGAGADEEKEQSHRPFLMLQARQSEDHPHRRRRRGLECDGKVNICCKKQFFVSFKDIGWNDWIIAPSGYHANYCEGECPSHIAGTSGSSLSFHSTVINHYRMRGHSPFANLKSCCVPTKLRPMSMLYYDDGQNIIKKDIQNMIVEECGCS
The assay is described as above.

Assay [7] deals with T5, Mature TGFB1 (UniProt P01137 279-390).
T5 construct: mature; also called mature TGFβ1
The experiment in a line: ForteBio Octet BLI; antigen on the tip (direct amine coupling), Ab1 in solution.

For assay [8], the target named is T6, Mature GDF11 (UniProt O95390 299-407, limits assumed).
T6 construct: mature; also called GDF11 mature growth factor
The assay is described as above.

Assay [9] addresses T7, Mature GDF8 (UniProt O14793 267-375, limits assumed).
T7 construct: mature; Amine-coupled to the biosensor tips; also called mature myostatin; mature growth factor of Myostatin
Described as above.

Assay [10] deals with T8, Mature Activin A (UniProt P08476 311-426).
T8 construct: mature; also called Activin A growth factor
T8 sequence (looked up): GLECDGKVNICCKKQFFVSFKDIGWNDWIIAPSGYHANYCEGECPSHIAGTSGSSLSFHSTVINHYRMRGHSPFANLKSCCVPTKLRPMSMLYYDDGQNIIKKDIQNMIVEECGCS
The assay is described as above.

For assay [11], the target named is T9, BMP 9 (UniProt Q9UK05 320-429, limits assumed).
T9 construct: mature
T9 sequence (looked up): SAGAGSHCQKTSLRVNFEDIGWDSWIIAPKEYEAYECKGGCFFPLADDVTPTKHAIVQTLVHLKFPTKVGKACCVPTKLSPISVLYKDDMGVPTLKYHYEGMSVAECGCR
The description is as above.

Assay [12] has as its target T10, BMP10 (UniProt O95393 317-424, limits assumed).
T10 construct: mature
T10 sequence (looked up): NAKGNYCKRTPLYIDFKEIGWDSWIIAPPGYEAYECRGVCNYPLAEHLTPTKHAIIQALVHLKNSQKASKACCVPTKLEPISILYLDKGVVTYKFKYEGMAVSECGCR
The description is as above.

Assay [13] concerns the target T1, proGDF8 (mouse). Put plainly: cell-based or functional assay. This is another data set of the same source.
In assay [14] the target is T5, Mature TGFB1. The experiment in a line: ForteBio Octet BLI; antigen on biosensor, antibody in solution.
Method: (§1) Binding affinities of antibody candidates were determined using the FortéBio Octet QKe dip and read label free assay system utilizing bio-layer interferometry. Antigens were immobilized to biosensors (streptavidin-coated biosensors for proGDF8, proGDF11 and proActivin; direct amine coupling for all others) in each experiment and the antibodies/constructs were presented in solution at high concentration (50 μg/mL) to measure binding interactions.
(§2) Binding affinities of antibodies were determined using the FortéBio Octet QKe dip and read label free assay system utilizing bio-layer interferometry. Human proGDF8, latent GDF8, proGDF11 and proActivin were biotinylated and immobilized to streptavidin-coated biosensors (FortéBio). Mature growth factors were immobilized via direct amine coupling to amine reactive tips according to manufacturer's instructions (FortéBio). In each experiment, the antibodies/constructs were presented in solution at a single high concentration (50 μg/mL) to measure binding interactions.
Assay [15] addresses T6, Mature GDF11. The description is as above.
Method: as §1, §2
Assay [16] addresses T7, Mature GDF8. The description is as above.
Method: as §1, §2
For assay [17], the target named is T8, Mature Activin A. Described as above.
Method: as §1, §2
Assay [18] deals with T9, BMP 9. Described as above.
Method: as §1, §2
Assay [19] has as its target T4, Pro Activin A. The assay is described as above.
Method: as §1, §2
For assay [20], the target named is T10, BMP10. The description is as above.
Method: as §1, §2
The target of assay [21] is T2, proGDF8 (human). The experiment in a line: Octet binding kinetics to pro- and latent-Myostatin, compared with parental Ab1.
A further assay addresses T11, latent GDF8 (human) (human, UniProt O14793 24-266; O14793 267-375).
T11 construct: proGDF8 cleaved by a proprotein convertase; the split after 243 is inferred from that; also called human latent Myostatin; Human latent GDF8
Described as above.

The text below walks through data of patent publication US20180344844A1 (SCHOLAR ROCK, published 2018).

Where a chain is given by its changes, count along the chain named. Numbers in names are those of the source. Read-outs that look alike come from different tables or passages of the source.

B1: Ab7 (antibody, V domains shown)
VH: QVQLQQSGAEVKKPGASVKVSCKASGYTFTSYYMHWVRQAPGQGLEWMGIINPSGGSTSYAQKFQGRVTMTRDTSTSTVYMELSSLRSEDTAVYYCARESLIRFLEDPQQGGMDVWGQGTTVTVSS
VL: QSALTQPASVSGSPGQSLTISCTGTSSDIGGYNYVSWYQQHPGKAPKLIIYDVTDRPSGVSGRFSGSKSGNTASLTISGLQTEDEAEYFCNSWTRSNNYIFGGGTKLTVLG
For the molecule B1, the “Murine proGDF8 IC50 (µM) Reporter assay” value in the assay with proGDF8 (mouse) [1] is 1.68 µM. Also, the “Human proGDF8 IC50 (µM) Reporter assay” value with proGDF8 (human) [2] was determined as 0.983 µM.

B2: Ab10 (antibody, V domains shown)
VH: EVQLVQSGGGVVQSGRSLRLSCVASGFSFSNYGMHWVRQAPGKGLEWLAFIWYDGSNKWYADSVKGRFTISRDNSKNALYLQMNSLRAEDTAVYYCARDRYSSSWGGGFDYWGQGTVLTVSS
VL: NFMLTQPHSVSESPGRTVTIPCSGRGGSIASDSVQWYQQRPGSAPTTIIYEDNQRPSGVPDRFSGSVDSSSNSASLTISGLRTEDEADYYCQSYDASSLWVFGGKTKLTVLG
Take B2: the “Human proGDF8 IC50 (µM) Reporter assay” value in the assay with proGDF8 (human) [2] was determined as 0.772 µM.

B3: Ab1 parental antibody, IgG4 (S228P), lambda (antibody, V domains shown)
VH: QIQLVQSGGGVVQPGRSLRLSCAASGFTFSSYGMHWVRQAPGKGLEWVAVISYDGSNKYYADSVKGRFTISRDNSKNTLYLQMNSLRAEDTAVYYCARDLLVRFLEWSHYYGMDVWGQGTTVTVSS
VL: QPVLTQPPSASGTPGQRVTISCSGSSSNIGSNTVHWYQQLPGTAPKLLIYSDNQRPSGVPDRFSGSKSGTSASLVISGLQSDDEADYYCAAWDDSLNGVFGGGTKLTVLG
notes: also called parental Ab1 IgG4; 24H4 (WT); copies: 2 + 2
For the molecule B3, the “Activity Assay - 293T cells EC50” value in the assay with proGDF8 (mouse) [3] is 839 nM. In the assay with proGDF11 (human) [4], the “GDF11 response, expressed as a percentage of GDF8 response” value was 1.33%. Further, the binding result with proGDF11 (human) [5], with Pro Activin A [6], with Mature TGFB1 [7], with Mature GDF11 [8], with Mature GDF8 [9] and with Mature Activin A [10] was “no binding (tested: 50 ug/mL)” in each case. Also, the binding result in the assay with BMP 9 [11] and in the assay with BMP10 [12] was “no binding (tested: 50 ug/mL)” throughout.

B4: Ab4 (Ab3 with germline framework residues), IgG4 (S228P), lambda (antibody, V domains shown)
VH: B3 VH with I2V, Q6E, T28A, N57I, Y110K
VL: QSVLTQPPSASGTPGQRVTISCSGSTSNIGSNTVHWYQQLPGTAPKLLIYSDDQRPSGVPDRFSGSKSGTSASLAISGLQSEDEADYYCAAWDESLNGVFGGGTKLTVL
notes: human IgG4/lambda framework with S228P; also called Ab4 germline
In the case of B4, the “GDF11 response, expressed as a percentage of GDF8 response” value with proGDF11 (human) [4] was 2.51%. Further, the “Activity Assay - 293T cells EC50” value with proGDF8 (mouse) [13] came out at 447 nM. In addition, the binding result in the assay with Mature TGFB1 [14], with Mature GDF11 [15], in the assay with Mature GDF8 [16], in the assay with Mature Activin A [17], in the assay with BMP 9 [18] and in the assay with Pro Activin A [19] was “no binding (tested: 50 µg/mL)” throughout. Moreover, the binding result with BMP10 [20] was “no binding (tested: 50 µg/mL)”.

B5: Ab6 (Ab5 with germline framework residues), IgG4 (S228P), lambda (antibody, V domains shown)
VH: B3 VH with I2V, Q6E, T28A, S56N, Y110K
VL: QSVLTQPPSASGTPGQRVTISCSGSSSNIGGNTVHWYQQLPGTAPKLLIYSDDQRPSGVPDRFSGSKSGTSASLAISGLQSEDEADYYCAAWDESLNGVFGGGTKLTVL
notes: human IgG4/lambda framework with S228P; also called Ab6 germline
As for B5, in the assay with proGDF11 (human) [4], the “GDF11 response, expressed as a percentage of GDF8 response” value turned out to be 2.07%. The binding result in the assay with Mature TGFB1 [14], in the assay with Mature GDF11 [15], in the assay with Mature GDF8 [16], with Mature Activin A [17], in the assay with BMP 9 [18] and in the assay with Pro Activin A [19] was “no binding (tested: 50 µg/mL)” throughout. For the same molecule, in the assay with BMP10 [20], the binding result is “no binding (tested: 50 µg/mL)”.

B6: Ab3 (affinity optimized variant of Ab1, parental frameworks) (antibody, IgG4, V domains shown)
VH: B3 VH with T28A, N57I, Y110K
VL: QPVLTQPPSASGTPGQRVTISCSGSTSNIGSNTVHWYQQLPGTAPKLLIYSDDQRPSGVPDRFSGSKSGTSASLVISGLQSDDEADYYCAAWDESLNGVFGGGTKLTVLG
notes: also called Ab3 parental; copies: 2 + 2
As for B6, the binding result in the assay with proGDF8 (human) [21] and with latent GDF8 (human) was “binds” in each case.

B7: Ab5 (affinity optimized variant of Ab1, parental frameworks) (antibody, IgG4, V domains shown)
VH: B3 VH with T28A, S56N, Y110K
VL: B6 VL with T26S, S31G
notes: also called Ab5 parental; copies: 2 + 2
B7: the binding result with proGDF8 (human) [21] and with latent GDF8 (human) was “binds” throughout.

B8: Ab9 (antibody, V domains shown)
VH: QVQLVQSGAEVKKPGSSVKVSCKASGGTFSSYAISWVRQAPGQGLEWMGGIIPIFGTANYAQKFQGRVTITADESTSTAYMELSSLRSEDTAVYYCANHGLMDDSSGYYLSNAFDIWGQGTMVTVSS
VL: not shown
B8: the “Murine proGDF8 IC50 (µM) Reporter assay” value in the assay with proGDF8 (mouse) [1] amounted to 19.9 µM. In addition, the “Human proGDF8 IC50 (µM) Reporter assay” value in the assay with proGDF8 (human) [2] was 12.2 µM.

B9: Ab8 (antibody, V domains shown)
VH: QIQLVQSGAEVKKPGASVKVSCKASGYTFTSYGISWVRQAPGQGLEWMGWISAYNGNTNYAQKLQGRVTMTTDTSTSTAYMELSSLRSEDTAVYYCARVGFYDYVWGSYPYDAFDIWGQGTMVTVSS
VL: EIVMTQSPGTLSLSPGERATLSCRASQSVSSNYLAWYQQKPGQAPRLLIYDASNRATGIPARFSGSGSGTDFTLTISSLEPEDFALYYCQQYGTSPLTFGGGTKLEIKR
For the molecule B9, the “Murine proGDF8 IC50 (µM) Reporter assay” value with proGDF8 (mouse) [1] came to 139 µM. Further, in the assay with proGDF8 (human) [2], the “Human proGDF8 IC50 (µM) Reporter assay” value was 6.04 µM.
